{
  "source": "patent US20190203210A1",
  "data": [
    {"target": "FLAG-HA-Atoh1 (UniProt Q92858)", "assay": "MS of 450 kDa Coomassie band from FLAG-HA-Atoh1 IP", "values": [
      {"substance": "MGA (from UniProt Q8IWI9 1-3065)", "Total peptide": 29, "Unique peptide": 27},
      {"substance": "PRRC2C (from UniProt Q9Y520 1-2896)", "Total peptide": 26, "Unique peptide": 21},
      {"substance": "PLEC (from UniProt Q15149 1-4684)", "Total peptide": 17, "Unique peptide": 16},
      {"substance": "TRRAP (from UniProt Q9Y4A5 2-3859)", "Total peptide": 12, "Unique peptide": 12},
      {"substance": "RNF213 (from UniProt Q63HN8 1-5207) (enzyme)", "Total peptide": 32, "Unique peptide": 30},
      {"substance": "MACF1 (from UniProt Q9UPN3 1-7388)", "Total peptide": 51, "Unique peptide": 50},
      {"substance": "KIF11 (from UniProt P52732 1-1056)", "Total peptide": 79, "Unique peptide": 46},
      {"substance": "GOLGB1 (from UniProt Q14789 1-3259)", "Total peptide": 12, "Unique peptide": 10},
      {"substance": "SON (from UniProt P18583 2-2426)", "Total peptide": 22, "Unique peptide": 20},
      {"substance": "UTRN (from UniProt P46939 1-3433)", "Total peptide": 30, "Unique peptide": 30},
      {"substance": "MAP1B (from UniProt P46821 2-2468)", "Total peptide": 133, "Unique peptide": 78},
      {"substance": "SRRM2 (from UniProt Q9UQ35 1-2752)", "Total peptide": 53, "Unique peptide": 38},
      {"substance": "AKAP9 (from UniProt Q99996 1-3907)", "Total peptide": 26, "Unique peptide": 26},
      {"substance": "CEP350 (from UniProt Q5VT06 1-3117)", "Total peptide": 23, "Unique peptide": 21},
      {"substance": "PRKDC (from UniProt P78527 1-4128) (enzyme)", "Total peptide": 161, "Unique peptide": 112},
      {"substance": "DMXL1 (from UniProt Q9Y485 1-3027)", "Total peptide": 13, "Unique peptide": 12},
      {"substance": "MYCBP2 (from UniProt O75592 1-4678) (enzyme)", "Total peptide": 51, "Unique peptide": 47},
      {"substance": "DYNC1H1 (from UniProt Q14204 2-4646)", "Total peptide": 87, "Unique peptide": 75},
      {"substance": "SACS (from UniProt Q9NZJ4 1-4579)", "Total peptide": 12, "Unique peptide": 12},
      {"substance": "HERC2 (from UniProt O95714 1-4834) (enzyme)", "Total peptide": 36, "Unique peptide": 34},
      {"substance": "MDN1 (from UniProt Q9NU22 1-5596)", "Total peptide": 41, "Unique peptide": 37},
      {"substance": "HECT, UBA and WWE domain containing 1 (Huwe1) protein, Q7Z6Z7 1-4374", "Total peptide": 279, "Unique peptide": 122},
      {"substance": "MAP1A (from UniProt P78559 1-2803)", "Total peptide": 15, "Unique peptide": 14},
      {"substance": "UBR5 (from UniProt O95071 2-2799) (enzyme)", "Total peptide": 31, "Unique peptide": 26}
    ]},
    {"target": "FLAG-HA-Atoh1 (UniProt Q92858)", "assay": "anti-HA IP of FLAG-HA-Atoh1 293T lysate, LC-MS/MS, ComPASS", "values": [
      {"substance": "NT5DC2 (from UniProt Q9H857 1-520)", "D^N Score": 2, "Z score": 5.71},
      {"substance": "PRPS1 (from UniProt P60891 2-318)", "D^N Score": 1.23, "Z score": 4.6},
      {"substance": "EIF2C1 (from UniProt Q9UL18 1-857)", "D^N Score": 1, "Z score": 5.16},
      {"substance": "EIF2C3 (from UniProt Q9H9G7 1-860)", "D^N Score": 1, "Z score": 5.16},
      {"substance": "CPOX (from UniProt P36551 111-454)", "D^N Score": 2, "Z score": 5.54},
      {"substance": "ENAH (from UniProt Q8N8S7 1-591)", "D^N Score": 1.41, "Z score": 5.71},
      {"substance": "FLNC (from UniProt Q14315 1-2725)", "D^N Score": 1.15, "Z score": 5.21},
      {"substance": "YARS2 (from UniProt Q9Y2Z4 17-477)", "D^N Score": 1.41, "Z score": 5.71},
      {"substance": "ZYX (from UniProt Q15942 2-572)", "D^N Score": 1.58, "Z score": 5.48},
      {"substance": "TUBA4A (from UniProt P68366 1-448)", "D^N Score": 3, "Z score": 3.77},
      {"substance": "EIF2C2 (from UniProt Q9UKV8 1-859)", "D^N Score": 3.16, "Z score": 5.72},
      {"substance": "CTPS2 (from UniProt Q9NRF8 1-586)", "D^N Score": 2.45, "Z score": 5.6},
      {"substance": "SERPINH1 (from UniProt P50454 19-418)", "D^N Score": 1, "Z score": 3.92},
      {"substance": "AHSA1 (from UniProt O95433 1-338)", "D^N Score": 1, "Z score": 5.03},
      {"substance": "MAPK3 (from UniProt P27361 2-379) (enzyme)", "D^N Score": 2, "Z score": 5.71},
      {"substance": "USP11 (from UniProt P51784 1-963) (enzyme)", "D^N Score": 1.41, "Z score": 5.42},
      {"substance": "SRI (from UniProt P30626 1-198)", "D^N Score": 1.41, "Z score": 5.71},
      {"substance": "USP47 (from UniProt Q96K76 1-1375) (enzyme)", "D^N Score": 2, "Z score": 5.54},
      {"substance": "TUBA1C (from UniProt Q9BQE3 1-449)", "D^N Score": 1.39, "Z score": 2.88},
      {"substance": "BCKDHA (from UniProt P12694 46-445)", "D^N Score": 2, "Z score": 5.54},
      {"substance": "SEC23B (from UniProt Q15437 2-767)", "D^N Score": 1, "Z score": 5.03},
      {"substance": "TCF12 (from UniProt Q99081 1-682)", "D^N Score": 2.45, "Z score": 5.71},
      {"substance": "PDXK (from UniProt O00764 1-312)", "D^N Score": 1.41, "Z score": 5.71},
      {"substance": "PDE4D (from UniProt Q08499 1-809)", "D^N Score": 1.41, "Z score": 5.71},
      {"substance": "SLC3A2 (from UniProt P08195 2-529)", "D^N Score": 1.41, "Z score": 5.71},
      {"substance": "ACOX1 (from UniProt Q15067 1-660)", "D^N Score": 1.41, "Z score": 5.71},
      {"substance": "CCDC124 (from UniProt Q96CT7 1-223)", "D^N Score": 1, "Z score": 5.03},
      {"substance": "TNRC6C (from UniProt Q9HCJ0 1-1936)", "D^N Score": 2, "Z score": 5.71},
      {"substance": "TCF3 (from UniProt P15923 1-654)", "D^N Score": 3.16, "Z score": 5.57},
      {"substance": "SEC23A (from UniProt Q15436 2-765)", "D^N Score": 1.23, "Z score": 5.24},
      {"substance": "PRDX4 (from UniProt Q13162 38-271)", "D^N Score": 1.23, "Z score": 4.6},
      {"substance": "ATP2A1 (from UniProt O14983 1-1001)", "D^N Score": 1.41, "Z score": 5.71},
      {"substance": "AAMP (from UniProt Q13685 1-434)", "D^N Score": 1, "Z score": 5.03},
      {"substance": "TUBB2B (from UniProt Q9BVA1 1-445)", "D^N Score": 2.58, "Z score": 4.36},
      {"substance": "FHL3 (from UniProt Q13643 2-280)", "D^N Score": 1, "Z score": 5.16},
      {"substance": "NEK9 (from UniProt Q8TD19 2-979) (enzyme)", "D^N Score": 2.83, "Z score": 5.54},
      {"substance": "HECT, UBA and WWE domain containing 1 (Huwe1) protein, Q7Z6Z7 1-4374", "D^N Score": 1.5, "Z score": 5.56},
      {"substance": "GFAP (from UniProt P14136 1-432)", "D^N Score": 2.45, "Z score": 5.71}
    ]},
    {"test_system": "FLAG-Atoh1", "assay": "not given", "values": [
      {"substance": "Myc-Huwe1 C4341A", "wild-type and K48 poly-ubiquitylated Atoh1": "The resulting decrease in both wild-type and K48 poly-ubiquitylated Atoh1"}
    ]},
    {"target": "FLAG-HA-Atoh1 (UniProt Q92858)", "assay": "not given", "values": [
      {"substance": "HECT, UBA and WWE domain containing 1 (Huwe1) protein", "poly-ubiquitylation of Atoh1 after Huwe1 knockdown (shRNA)": "decreased poly-ubiquitylation was observed after Huwe1 knockdown"}
    ]}
  ]
}
